# What was measured:
# western blot = details: glycan changed form; control: control RAW264.7
# [1] = Co-IP/western after MG132; details: glycan changed form; control: control RAW264.7
# [2] = CHX chase, western blot (protein persistence); details: glycan changed form; control: control RAW264.7
# [3] = Co-IP/western after MG132, HEK 293T; details: glycan lost; control: WT/LG
protein,measurement,setting,value
Lgals3bp (galectin 3 binding protein): RAW/shM1 (MGAT3 silenced) (protein) parent chain: MALLWLLSVFLLVPGTQGTEDGDMRLVNGASANEGRVEIFYRGRWGTVCDNLWNLLDAHVVCRALGYENATQALGRAAFGPGKGPIMLDEVECTGTESSLASCRSLGWMVSRCGHEKDAGVVCSNDTTGLHILDLSGELSDALGQIFDSQQGCDLFIQVTGQGYEDLSLCAHTLILRTNPEAQALWQVVGSSVIMRVDAECMPVVRDFLRYFYSRRIEVSMSSVKCLHKLASAYGATELQDYCGRLFATLLPQDPTFHTPLDLYAYARATGDSMLEDLCVQFLAWNFEPLTQSESWSAVPTTLIQALLPKSELAVSSELDLLKAVDQWSTETIASHEDIERLVEQVRFPMMLPQELFELQFNLSLYQDHQALFQRKTMQALEFHTVPVEVLAKYKGLNLTEDTYKPRLYTSSTWSSLVMASTWRAQRYEYNRYNQLYTYGYGSVARYNSYQSFQTPQHPSFLFKDKQISWSATYLPTMQSCWNYGFSCTSNELPVLGLTTSSYSNPTIGYENRVLILCGGYSVVDVTSFEGSKAPIPTALDTNSSKTPSLFPCASGAFSSFRVVIRPFYLTNSTDMV,expression_or_secretion,western blot,increases
same,other: ubiquitination,[1],decreases
same,degradation_or_half_life,[2],increases
Lgals3bp (galectin 3 binding protein): RAW/MGAT3 (MGAT3 overexpressed) (protein) parent chain: MALLWLLSVFLLVPGTQGTEDGDMRLVNGASANEGRVEIFYRGRWGTVCDNLWNLLDAHVVCRALGYENATQALGRAAFGPGKGPIMLDEVECTGTESSLASCRSLGWMVSRCGHEKDAGVVCSNDTTGLHILDLSGELSDALGQIFDSQQGCDLFIQVTGQGYEDLSLCAHTLILRTNPEAQALWQVVGSSVIMRVDAECMPVVRDFLRYFYSRRIEVSMSSVKCLHKLASAYGATELQDYCGRLFATLLPQDPTFHTPLDLYAYARATGDSMLEDLCVQFLAWNFEPLTQSESWSAVPTTLIQALLPKSELAVSSELDLLKAVDQWSTETIASHEDIERLVEQVRFPMMLPQELFELQFNLSLYQDHQALFQRKTMQALEFHTVPVEVLAKYKGLNLTEDTYKPRLYTSSTWSSLVMASTWRAQRYEYNRYNQLYTYGYGSVARYNSYQSFQTPQHPSFLFKDKQISWSATYLPTMQSCWNYGFSCTSNELPVLGLTTSSYSNPTIGYENRVLILCGGYSVVDVTSFEGSKAPIPTALDTNSSKTPSLFPCASGAFSSFRVVIRPFYLTNSTDMV,degradation_or_half_life,[2],decreases
Lgals3bp (galectin 3 binding protein): N69A/LG (protein) parent chain: MALLWLLSVFLLVPGTQGTEDGDMRLVNGASANEGRVEIFYRGRWGTVCDNLWNLLDAHVVCRALGYENATQALGRAAFGPGKGPIMLDEVECTGTESSLASCRSLGWMVSRCGHEKDAGVVCSNDTTGLHILDLSGELSDALGQIFDSQQGCDLFIQVTGQGYEDLSLCAHTLILRTNPEAQALWQVVGSSVIMRVDAECMPVVRDFLRYFYSRRIEVSMSSVKCLHKLASAYGATELQDYCGRLFATLLPQDPTFHTPLDLYAYARATGDSMLEDLCVQFLAWNFEPLTQSESWSAVPTTLIQALLPKSELAVSSELDLLKAVDQWSTETIASHEDIERLVEQVRFPMMLPQELFELQFNLSLYQDHQALFQRKTMQALEFHTVPVEVLAKYKGLNLTEDTYKPRLYTSSTWSSLVMASTWRAQRYEYNRYNQLYTYGYGSVARYNSYQSFQTPQHPSFLFKDKQISWSATYLPTMQSCWNYGFSCTSNELPVLGLTTSSYSNPTIGYENRVLILCGGYSVVDVTSFEGSKAPIPTALDTNSSKTPSLFPCASGAFSSFRVVIRPFYLTNSTDMV,other: ubiquitination,[3],decreases
